Results reported in PMC6150654.

Target: Human PTH1 receptor with a His-tag (human) (UniProt Q03431)
Assay: QCM biosensor; PTH1R amine coupled to an LNB-carboxyl chip (Attana Cell 200); PTH injected at 4-20 ug/mL, 35 uL, 25 uL/min, dissociation 510 s; 20 °C; 10 mM HEPES, 150 mM NaCl, 0.005% Tween-20, pH 7.4; rate constant distributions (AIDA) and two-site model fitted to the sensorgrams one by one

Sequence of UniProt Q03431 (Q03431 27-593): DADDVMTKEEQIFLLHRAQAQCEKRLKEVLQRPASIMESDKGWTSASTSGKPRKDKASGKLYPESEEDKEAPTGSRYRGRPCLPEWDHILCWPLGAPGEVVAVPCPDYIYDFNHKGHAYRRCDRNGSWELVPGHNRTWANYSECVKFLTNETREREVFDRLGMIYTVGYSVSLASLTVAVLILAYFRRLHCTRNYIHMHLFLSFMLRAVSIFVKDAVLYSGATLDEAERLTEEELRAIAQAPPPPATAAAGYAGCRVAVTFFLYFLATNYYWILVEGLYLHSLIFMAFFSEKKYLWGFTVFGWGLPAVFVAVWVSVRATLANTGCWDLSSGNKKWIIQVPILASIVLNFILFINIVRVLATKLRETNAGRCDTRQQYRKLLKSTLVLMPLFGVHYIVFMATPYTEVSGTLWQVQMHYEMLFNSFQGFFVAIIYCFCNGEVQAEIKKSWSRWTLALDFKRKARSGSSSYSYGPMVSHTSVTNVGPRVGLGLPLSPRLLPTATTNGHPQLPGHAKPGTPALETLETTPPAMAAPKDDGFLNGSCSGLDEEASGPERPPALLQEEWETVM

- log10(ka), both distributions of the RCD (4129 nM injection): 4
- log10(ka), first cluster (two-site fit): 4.2
- log10(ka), second cluster (two-site fit): 3.7
- log10(kd), first cluster (two-site fit): -0.9
- log10(kd), one distribution of the RCD (4129 nM injection): -2
- log10(kd), other distribution of the RCD (4129 nM injection): -1
- log10(kd), second cluster (two-site fit): -2.3
Substance: parathyroid hormone (1-34) (peptide)
